For this test, the system named is non-tumor bearing mice. Nature of the test: Lymph pulsation frequency assay in non-tumor bearing mice. The settings on record: acute injection, n=6 animals/group (FIG. 6B). The test is classed as in vivo, mouse. The method, then:
Female Balb-c nude mice from Charles River Laboratory were used at 6-8 weeks of age. To establish baseline pulsation frequency and lymph node loading rates we imaged non-tumor bearing mice. In some cases mice were longitudinally imaged for pulsation, i.e., the same mouse was imaged daily over a 7-day period. Mice were anesthetized with 2% Isoflurane and maintained at 37° C. throughout experiments. A PulseOx probe was attached to the thigh (opposing injection site) to monitor heart rate before running pulsation assays.
For all experiments fluorescent dye injections were performed with 5 mg AlexaFluor680 conjugated to dextran 70 kd (MolecularProbes) in 1 ml sterile PBS. […]
Epi-fluorescence Microscopy Pulsatile flow activity was observed using an epifluorescence microscope (Prairie Technologies) equipped with a Cy5.5 Red filter set (Chroma), Halogen light source (ExFo Excite Series 120), 4× objective lens (Olympus) and a charge coupled device (CCD) camera (S97827, Olympus). […] Pulsation and heart rates were monitored (PulseOx) for stability for 10 minutes before video capture. […]
Digital videos (5 minutes) of pulsation were acquired with PictureFrame software (Optronics) using time lapse settings (282 ms exposure, no inter-frame delay, 5 minutes total acquisition time). Data was analyzed off-line from recorded time lapse videos. […]

B1: recombinant VEGF-C protein: recombinant VEGF-C protein injected acutely in non-tumor bearing mice (protein, UniProt P97953 108-223, looked up)
Vascular endothelial growth …: AHYNTEILKSIDNEWRKTQCMPREVCIDVGKEFGAATNTFFKPPCVSVYRCGGCCNSEGLQCMNTSTGYLSKTLFEITVPLSQGPKPVTISFANHTSCRCMSKLDVYRQVHSIIRR
Regarding B1, the lymph pulsation frequency entry is recorded as “does not result in any significant change”.
